Results reported in patent US20140030278A1 (QUIAPEG PHARMACEUTICALS, published 2014).

Key:
[1] = molecular target: T1, Recombinant human TNF-alpha (human, UniProt P01375 77-233); experiment: pre-incubation with 2.9 ng/ml rhTNF-alpha, ELISA of unbound rhTNF-alpha
T1 construct: Bought reagent; also called rhTNF-alpha; TNF-α
Protocol: (§1) A fixed concentration of 2.9 ng/ml rhTNF-alpha was used in all incubations. PEGylation was conducted in 5 time molar excess (5 eq) or 10 time molar excess (10 eq) of PEG20 compared etanercept. IC₅₀ is expressed as gram etanercept per ml.
(§2) Recombinant human TNF-alpha (rhTNF-alpha; AbCam PLC, Cambridge, UK; at a fixed concentration of 2.9 ng/ml) was mixed with different concentrations (29000 ng/ml—56.6 pg/ml) of non-PEGylated etanercept, PEG20-etanercept (5 eq) or PEG20-etanercept (10 eq). The pre-incubation mixtures were incubated in a refrigerator at 4-8° C. overnight. The amount of unbound rhTNF-alpha was analysed with a sensitive enzyme-linked immunosorbent assay (ELISA). In brief, 96-well plates (MaxiSorb, Nunc, Roskilde, Denmark) were used for the ELISA. Plates were coated with two anti-TNF-alpha monoclonal antibodies (TNF3/4, Mabtech AB, Nacka Strand, Sweden) diluted in PBS, pH 7.4, to a final concentration of 2 μg/ml. The 96-well plates were incubated in a refrigerator at 4-8° C. overnight. […] The optical density of the resultant yellow color was measured in a spectrophotometer at 450 nm.

[2] = molecular target: T1, Recombinant human TNF-alpha; experiment: pre-incubation with 2.9 ng/ml rhTNF-alpha, ELISA of unbound rhTNF-alpha, 4-parameter fit
Protocol: as §1, §2

T1 sequence (P01375 77-233 limits assumed): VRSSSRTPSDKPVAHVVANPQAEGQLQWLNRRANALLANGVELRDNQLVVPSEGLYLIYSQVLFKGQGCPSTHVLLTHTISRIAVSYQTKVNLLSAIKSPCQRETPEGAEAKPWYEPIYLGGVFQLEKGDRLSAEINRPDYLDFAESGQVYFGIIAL

Row | Binder | binding result [1] | fold IC50 against non-PEGylated etanercept [2] [fold]
1 | etanercept (ENBREL®), non-PEGylated (Fc fusion, Commercial ENBREL (Wyeth Europa Ltd); also called etanercept (non-PEGylated); non-PEGylated etanercept) LPAQVAFTPYAPEPGSTCRLREYYDQTAQMCCSKCSPGQHAKVFCTKTSDTVCDSCEDSTYTQLWNWVPECLSCGSRCSSDQVETQACTREQNRICTCRPGWYCALSKQEGCRLCAPLRKCRPGFGVARPGTETSDVVCKPCAPGTFSNTTSSTDICRPHQICNVVAIPGNASMDAVCTSTSPTRSMAPGAVHLPQPVSTRSQHTQPTPEPSTAPSTSFLLPMGPSPPAEGSTGDEPKSCDKTHTCPPCPAPELLGGPSVFLFPPKPKDTLMISRTPEVTCVVVDVSHEDPQVKFNWYVDGVQVHNAKTKPREQQYNSTYRVVSVLTVLHQNWLDGKEYKCKVSNKALPAPIEKTISKAKGQPREPQVYTLPPSREEMTKNQVSLTCLVKGFYPSDIAVEWESNGQPENNYKTTPPVLDSDGSFFLYSKLTVDKSRWQQGNVFSCSVMHEALHNHYTQKSLSLSPGK | binds | 
2 | PEG20-etanercept (10 eq) (Fc fusion, 20 KDa PEG (PEG20) conjugated via NHS-ester PEG reagent at 10 times molar excess; sites not stated, also called PEGylated etanercept) LPAQVAFTPYAPEPGSTCRLREYYDQTAQMCCSKCSPGQHAKVFCTKTSDTVCDSCEDSTYTQLWNWVPECLSCGSRCSSDQVETQACTREQNRICTCRPGWYCALSKQEGCRLCAPLRKCRPGFGVARPGTETSDVVCKPCAPGTFSNTTSSTDICRPHQICNVVAIPGNASMDAVCTSTSPTRSMAPGAVHLPQPVSTRSQHTQPTPEPSTAPSTSFLLPMGPSPPAEGSTGDEPKSCDKTHTCPPCPAPELLGGPSVFLFPPKPKDTLMISRTPEVTCVVVDVSHEDPQVKFNWYVDGVQVHNAKTKPREQQYNSTYRVVSVLTVLHQNWLDGKEYKCKVSNKALPAPIEKTISKAKGQPREPQVYTLPPSREEMTKNQVSLTCLVKGFYPSDIAVEWESNGQPENNYKTTPPVLDSDGSFFLYSKLTVDKSRWQQGNVFSCSVMHEALHNHYTQKSLSLSPGK |  | < 2
3 | PEG20-etanercept (5 eq) (Fc fusion, 20 KDa PEG (PEG20) conjugated via NHS-ester PEG reagent at 5 times molar excess; sites not stated, also called PEGylated etanercept) LPAQVAFTPYAPEPGSTCRLREYYDQTAQMCCSKCSPGQHAKVFCTKTSDTVCDSCEDSTYTQLWNWVPECLSCGSRCSSDQVETQACTREQNRICTCRPGWYCALSKQEGCRLCAPLRKCRPGFGVARPGTETSDVVCKPCAPGTFSNTTSSTDICRPHQICNVVAIPGNASMDAVCTSTSPTRSMAPGAVHLPQPVSTRSQHTQPTPEPSTAPSTSFLLPMGPSPPAEGSTGDEPKSCDKTHTCPPCPAPELLGGPSVFLFPPKPKDTLMISRTPEVTCVVVDVSHEDPQVKFNWYVDGVQVHNAKTKPREQQYNSTYRVVSVLTVLHQNWLDGKEYKCKVSNKALPAPIEKTISKAKGQPREPQVYTLPPSREEMTKNQVSLTCLVKGFYPSDIAVEWESNGQPENNYKTTPPVLDSDGSFFLYSKLTVDKSRWQQGNVFSCSVMHEALHNHYTQKSLSLSPGK |  | < 2
